# Results: the supplement of paper PMC12855868
# B1: library; numbered along this chain (parent)
# chain: MAAAGGARLLRAASAVLGGPAGRWLHHAGSRAGSSGLLRNRGPGGSAEASRSLSVSARARSSSEDKITVHFINRDGETLTTKGKVGDSLLDVVVENNLDIDGFGACEGTLACSTCHLIFEDHIYEKLDAITDEENDMLDLAYGLTDRSRLGCQICLTKSMDNMTVRVPETVADARQSIDVGKTS
# Variants of: B1
# Test: scaled log2 fold change in cell abundance, elesclomol vs control (0 = silent mean, 1 = nonsense mean) (scaled log2 ratio); higher = higher viability under elesclomol (loss of FDX1 cuproptosis function)
# Settings: glucose 10 mM
# [1] = with ABC1 FDX1 KO, elesclomol 5 nM, 14 days
# [2] = with HEK293T FDX1 KO, elesclomol 40 nM, 11 days
# 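Also: variant abundance is its share of total variant reads in each endpoint sample, from next-generation sequencing of the integrated ORF PCR-amplified out of genomic DNA.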
Variant,scaled log2 fold change [1],scaled log2 fold change [2]
MAAAGGARLLRAASAVLGGPAGRWLHHAGSRAGSSGLLRNRGPGGSAEASRSLSVSARARSSSEDKITVHFINRDGETLTTKGKVGDSLLDVVDENNLDIDGFGACEGTLACSTCHLIFEDHIYEKLDAITDEENDMLDLAYGLTDRSRLGCQICLTKSMDNMTVRVPETVADARQSIDVGKTS [V94D],-0.313,–
MAAAGGARLLRAASAVLGGPAGRWLHHAGSRAGSSGLLRNRGPGGSAEASRSLSVSARARSSSEDKITVHFINRDGETLTTKGKVGDSLLDVVHENNLDIDGFGACEGTLACSTCHLIFEDHIYEKLDAITDEENDMLDLAYGLTDRSRLGCQICLTKSMDNMTVRVPETVADARQSIDVGKTS [V94H],-0.328,0.317
MAAAGGARLLRAASAVLGGPAGRWLHHAGSRAGSSGLLRNRGPGGSAEASRSLSVSARARSSSEDKITVHFINRDGETLTTKGKVGDSLLDVVCENNLDIDGFGACEGTLACSTCHLIFEDHIYEKLDAITDEENDMLDLAYGLTDRSRLGCQICLTKSMDNMTVRVPETVADARQSIDVGKTS [V94C],-0.491,0.199
MAAAGGARLLRAASAVLGGPAGRWLHHAGSRAGSSGLLRNRGPGGSAEASRSLSVSARARSSSEDKITVHFINRDGETLTTKGKVGDSLLDVVFENNLDIDGFGACEGTLACSTCHLIFEDHIYEKLDAITDEENDMLDLAYGLTDRSRLGCQICLTKSMDNMTVRVPETVADARQSIDVGKTS [V94F],-0.376,-0.411
MAAAGGARLLRAASAVLGGPAGRWLHHAGSRAGSSGLLRNRGPGGSAEASRSLSVSARARSSSEDKITVHFINRDGETLTTKGKVGDSLLDVVGENNLDIDGFGACEGTLACSTCHLIFEDHIYEKLDAITDEENDMLDLAYGLTDRSRLGCQICLTKSMDNMTVRVPETVADARQSIDVGKTS [V94G],-0.377,–
MAAAGGARLLRAASAVLGGPAGRWLHHAGSRAGSSGLLRNRGPGGSAEASRSLSVSARARSSSEDKITVHFINRDGETLTTKGKVGDSLLDVVAENNLDIDGFGACEGTLACSTCHLIFEDHIYEKLDAITDEENDMLDLAYGLTDRSRLGCQICLTKSMDNMTVRVPETVADARQSIDVGKTS [V94A],0.0221,0.0839
MAAAGGARLLRAASAVLGGPAGRWLHHAGSRAGSSGLLRNRGPGGSAEASRSLSVSARARSSSEDKITVHFINRDGETLTTKGKVGDSLLDVVEENNLDIDGFGACEGTLACSTCHLIFEDHIYEKLDAITDEENDMLDLAYGLTDRSRLGCQICLTKSMDNMTVRVPETVADARQSIDVGKTS [V94E],0.00926,-0.058
MAAAGGARLLRAASAVLGGPAGRWLHHAGSRAGSSGLLRNRGPGGSAEASRSLSVSARARSSSEDKITVHFINRDGETLTTKGKVGDSLLDVVIENNLDIDGFGACEGTLACSTCHLIFEDHIYEKLDAITDEENDMLDLAYGLTDRSRLGCQICLTKSMDNMTVRVPETVADARQSIDVGKTS [V94I],-0.52,0.00216
MAAAGGARLLRAASAVLGGPAGRWLHHAGSRAGSSGLLRNRGPGGSAEASRSLSVSARARSSSEDKITVHFINRDGETLTTKGKVGDSLLDVYVENNLDIDGFGACEGTLACSTCHLIFEDHIYEKLDAITDEENDMLDLAYGLTDRSRLGCQICLTKSMDNMTVRVPETVADARQSIDVGKTS [V93Y],-0.0809,1.12
